Measurements: the supplement of paper PMC9732359
± gives the uncertainty stated by the source.

Test: protein stability index of a GFP-peptide fusion (yeast GPS) (PSI 1-4); higher = more stable; sorted into four equal gates, so the index is relative within each strain
How it was run: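 Tiled 17-residue yeast protein peptides were fused downstream of GFP in a plasmid that also expresses Cherry, and the pooled library was carried in yeast. Mid-log cultures in leucine-free medium were sorted into four equal gates by GFP/Cherry fluorescence ratio, and plasmids from each gate were PCR-amplified and Illumina-sequenced, with reads assigned to strains by barcodes. The protein stability index for each peptide was each gate's read frequency times its gate number, summed.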

| Sequence | protein stability index (doa10∆) | protein stability index (pdr5∆) | protein stability index (san1∆) | protein stability index (ubr1∆) |
| --- | --- | --- | --- | --- |
| PSKGQSLSKISQAFDIV [RPP1] | 3.25 ± 0.095 | 3.19 ± 0.085 | 2.96 ± 0.11 | 3.2 ± 0.085 |
| PSLKDSSSNGGGSAKPS [RPC53] | 2.91 ± 0.18 | 2.82 ± 0.14 | 2.7 ± 0.27 | 2.93 ± 0.15 |
| PSLNKTINGKVNGRTKS [GAL11] | 3.06 ± 0.14 | 3.07 ± 0.13 | 2.98 ± 0.14 | 3.11 ± 0.14 |
| PSNFEINAEEIVDFTLP [PRP8] | 2.91 ± 0.083 | 3.18 ± 0.082 | 3 ± 0.064 | 3.02 ± 0.049 |
| PSNSTTTLHGPGFQLPN [SRB8] | 3 ± 0.1 | 2.85 ± 0.096 | 2.71 ± 0.066 | 2.91 ± 0.058 |
| PSPYKTTVYRYSAAKKI [YAR002W/NUP60] | 1.69 ± 0.051 | 1.98 ± 0.05 | 1.49 ± 0.069 | 1.67 ± 0.042 |
| PSRTRETATSERNASEV [GRR1] | 3.32 ± 0.15 | 3 ± 0.12 | 2.86 ± 0.091 | 2.84 ± 0.14 |
| PSSLNSDKIPYVAPTKK [SRB4] | 2.24 ± 0.073 | 2.59 ± 0.1 | 2.15 ± 0.086 | 2.09 ± 0.063 |
| PSTGSNLQQQQQQQIQV [YGR119C/NUP57] | – | 2.55 ± 0.19 | – | – |
| PSTRCKLKLLRMERIKD [RPT2] | 1.6 ± 0.045 | 1.68 ± 0.056 | 1.88 ± 0.089 | 1.76 ± 0.064 |
| PSVKRQKMAELEAARSE [PRP8] | 3.31 ± 0.1 | 3.26 ± 0.075 | 3.31 ± 0.074 | 3.28 ± 0.077 |
| PTHIWNAKRSHMMKRWG [POP1] | 2.35 ± 0.075 | 2.24 ± 0.068 | 1.98 ± 0.12 | 2.26 ± 0.067 |
| PTITLDDVYRPAAESKI [SNF5] | 3.13 ± 0.068 | 3.11 ± 0.071 | 3.02 ± 0.09 | 2.98 ± 0.068 |
| PTKTLTTKERKKSRLGN [PRP8] | 2.33 ± 0.079 | 2.26 ± 0.072 | 2.91 ± 0.094 | 2.62 ± 0.056 |
| PTLPTNHNKTKLLKSLK [PRP8] | 2.33 ± 0.07 | 1.6 ± 0.056 | 1.82 ± 0.076 | 2.41 ± 0.057 |
| PTNCPLRQFKTCPVEVI [BRR2] | 3 ± 0.093 | 3.17 ± 0.09 | 3.33 ± 0.063 | 2.9 ± 0.066 |
| PTQITQYTQRLSKLEKA [SRP68] | 1.75 ± 0.06 | 2.08 ± 0.045 | 2.06 ± 0.079 | 2.48 ± 0.045 |
| PTSPAYSPTSPSYSPTS [RPO21] | 2.89 ± 0.051 | 2.86 ± 0.045 | 2.73 ± 0.037 | 2.9 ± 0.035 |
| PTVSLTINLDRFMKGRR [RPC82] | 2.38 ± 0.083 | 2.48 ± 0.06 | 2.62 ± 0.062 | 2.63 ± 0.081 |
| PVRALIVQAKEPNLAAQ [ECM29] | 2.14 ± 0.11 | 2.6 ± 0.08 | 2.51 ± 0.092 | 2.64 ± 0.059 |
| PVSCIIQNDEEYDTPAL [PRP8] | 1.79 ± 0.1 | 2.73 ± 0.077 | 1.92 ± 0.093 | 1.22 ± 0.086 |
| PVSTASYRLLPQINILQ [RPC40] | 1.61 ± 0.053 | 1.66 ± 0.05 | 1.63 ± 0.07 | 1.97 ± 0.051 |
| PVSVSRIARALKQEGAA [RPL18A] | 3.36 ± 0.22 | 2.83 ± 0.11 | 2.96 ± 0.12 | 3.3 ± 0.057 |
| PVVQVGIFIKILNDSLI [IRR1] | 1.5 ± 0.052 | 1.49 ± 0.046 | 1.86 ± 0.067 | 1.97 ± 0.038 |
| PVVRAPTVKYNRKVRAG [RPL13A] | 1.22 ± 0.1 | 2.15 ± 0.14 | 1.98 ± 0.18 | 1.49 ± 0.11 |
| PVYTAQWSATWIAMRRE [PRP8] | 1.68 ± 0.079 | 1.96 ± 0.063 | 1.97 ± 0.089 | 1.9 ± 0.067 |
| PYAVLSQFYELRDREDW [YJR042W/NUP85] | 2.16 ± 0.16 | – | 2.31 ± 0.21 | 2.71 ± 0.18 |

| Sequence | protein stability index (doa10∆) | protein stability index (pdr5∆) | protein stability index (san1∆) | protein stability index (ubr1∆) |
| --- | --- | --- | --- | --- |
| PYLPKHYLVLLVAKFLY [YJR042W/NUP85] | 1.3 ± 0.084 | 1.28 ± 0.06 | 1.16 ± 0.15 | 1.21 ± 0.052 |
| PYMPYYYYYHPMNAPTP [DSN1] | 2.52 ± 0.043 | 2.71 ± 0.043 | 2.64 ± 0.045 | 2.69 ± 0.032 |
| PYNLNLFPNELYNVMGI [RPC31] | 2.12 ± 0.061 | 2.52 ± 0.092 | 2.71 ± 0.086 | 2.38 ± 0.12 |
| QALRVLRLKPGRKYTTL [RPL16B] | 2.34 ± 0.055 | 1.98 ± 0.051 | 2.37 ± 0.057 | 2.73 ± 0.048 |
| QANIQLYSIREDYELSP [PRE1] | 2.96 ± 0.1 | 2.82 ± 0.093 | 3.01 ± 0.074 | 3.46 ± 0.11 |
| QANSNLTLLERKWVIFI [NUT1] | 1.85 ± 0.055 | 1.92 ± 0.044 | 1.67 ± 0.094 | 2.19 ± 0.061 |
| QAPSELELQVAKTFIDL [RPS7B] | 3.06 ± 0.054 | 3.13 ± 0.04 | 2.89 ± 0.072 | 2.99 ± 0.046 |
| QAQLRIDDKTQNDELTM [DIS3] | 2.42 ± 0.085 | 2.6 ± 0.07 | 2.5 ± 0.073 | 2.62 ± 0.088 |
| QDDADPMVSVMKMDKSP [RPT2] | 1.16 ± 0.065 | 1.27 ± 0.079 | 1.29 ± 0.26 | 1.52 ± 0.073 |
| QDEAELVEEKTPGLTFN [RPC82] | – | 3.62 ± 0.29 | – | 3.35 ± 0.12 |
| QDGGVTPYSNESGLVNA [RPO21] | 2.68 ± 0.055 | 2.69 ± 0.065 | 2.63 ± 0.058 | 2.6 ± 0.068 |
| QDLPKINDKRANLMLVM [SRB4] | 1.91 ± 0.073 | 1.88 ± 0.068 | 1.83 ± 0.14 | 1.73 ± 0.063 |
| QDLSRNTLGKGQNCLDI [SNU114] | 3.35 ± 0.12 | 3.28 ± 0.12 | 3.28 ± 0.16 | 3.61 ± 0.15 |
| QDNKKIYVHVRRSTPFS [ESC2] | 2.34 ± 0.049 | 2.49 ± 0.049 | 2.61 ± 0.049 | 2.64 ± 0.04 |
| QDVIKVLYQSNATHDED [SWP82] | 2.91 ± 0.043 | 2.89 ± 0.04 | 2.69 ± 0.04 | 2.881 ± 0.028 |
| QEDELDEGTALSRLGLK [RPB10] | 3.41 ± 0.073 | 3.38 ± 0.086 | 3.5 ± 0.058 | 3.06 ± 0.079 |
| QEETVVEQTAEVTIEDA [RPS12] | 3.36 ± 0.12 | 3.38 ± 0.13 | 3.19 ± 0.048 | 3.33 ± 0.056 |
| QEIFDANVQRLKEYQSK [RPL13A] | 3.06 ± 0.097 | 3.4 ± 0.15 | 2.93 ± 0.15 | 3.27 ± 0.093 |
| QEKNFQTGIFVYQNNIT [RPB5] | 2.49 ± 0.064 | 1.52 ± 0.064 | 2.88 ± 0.09 | 2.38 ± 0.082 |
| QELKLTCVAKKGIAKEH [RPB3] | 3.09 ± 0.23 | 3.18 ± 0.13 | 2.92 ± 0.1 | 2.96 ± 0.095 |
| QEMIDILETIFRGARKN [DIB1] | 2.83 ± 0.14 | – | 2.77 ± 0.17 | – |
| QENKNIDDENITKLNKE [SRB4] | 3.44 ± 0.056 | 3.23 ± 0.068 | 3.22 ± 0.052 | 3.46 ± 0.057 |
| QEQGSFQHILRLLNTNV [RPS18A] | 2.97 ± 0.045 | 3.06 ± 0.045 | 2.91 ± 0.037 | 3.03 ± 0.035 |
| QEQITLYDHWDKYHEQW [SSN8] | 3.32 ± 0.19 | 3.12 ± 0.12 | 2.84 ± 0.071 | 2.76 ± 0.046 |
| QESFINTMSAWVNMLLI [FAS2] | 2.2 ± 0.077 | 2.12 ± 0.085 | 2.08 ± 0.1 | 2.37 ± 0.066 |
| QESSSTLSTHSTTTSVN [SIN4] | 3.04 ± 0.04 | 3.12 ± 0.037 | 3.12 ± 0.028 | 3.132 ± 0.029 |
| QETASPLSQDELISLRK [YIL149C/MLP2] | 2.42 ± 0.06 | 2.22 ± 0.074 | 1.89 ± 0.11 | 2.13 ± 0.061 |
